Measured values published in patent US7153676B1, “Transacylases of the paclitaxel biosynthetic pathway” (priority 1999, dated 2006).
“Also recorded” adds a separate entry of the source.

Assays:
TAX2 gene product = molecular target: T1, TAX2 gene product (Taxus cuspidata, UniProt Q9FPW3); assay: recombinant TAX2 expressed in E. coli JM109, acetyl transacylase assay; assay type: biochemical; settings: [3H]taxadienol and acetyl CoA co-substrates
T1 construct: Full-length insert fragments of the relevant plasmids are excised and subcloned in-frame into the expression vector pCWori+; made in house; host or cells: E. coli JM109 (pCWori+)
T1 sequence (Q9FPW3 1-440): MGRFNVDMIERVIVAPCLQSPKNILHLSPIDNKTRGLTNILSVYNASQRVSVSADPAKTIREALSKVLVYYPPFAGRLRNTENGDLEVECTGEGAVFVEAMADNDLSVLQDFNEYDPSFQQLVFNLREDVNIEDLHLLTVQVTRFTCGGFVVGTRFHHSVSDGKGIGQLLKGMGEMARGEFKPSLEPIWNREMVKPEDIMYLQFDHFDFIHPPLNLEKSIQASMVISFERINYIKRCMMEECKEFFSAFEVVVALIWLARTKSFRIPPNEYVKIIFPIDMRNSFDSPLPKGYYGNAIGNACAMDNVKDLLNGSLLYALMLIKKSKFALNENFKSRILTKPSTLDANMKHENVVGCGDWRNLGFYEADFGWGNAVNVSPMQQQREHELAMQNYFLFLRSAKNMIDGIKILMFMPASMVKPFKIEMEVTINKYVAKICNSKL
Protocol: To determine the identity of the putative taxadienol acetyl transacylase, TAX1 (SEQ ID NO: 28), TAX2 (SEQ ID NO: 26), and TAX6 (SEQ ID NO: 45) were subcloned in-frame into the expression vector pCWori+ (Barnes, Methods Enzymol. 272:3–14, 1996) and expressed in E. coli JM109 cells. The transformed bacteria were cultured and induced with isopropyl β-D-thiogalactoside (IPTG), and cell-free extracts were prepared and evaluated for taxadienol acetyl transacylase activity using the previously developed assay procedures (Walker et al., Arch. Biochem. Biophys. 364:273–279, 1999). Clone TAX1 (corresponding directly to Probe 1) expressed high levels of taxadienol acetyl transacylase activity (20% conversion of substrate to product), as determined by radiochemical analysis; the product of this recombinant enzyme was confirmed as taxadienyl-5α-yl acetate by gas chromatography-mass spectrometry (GC-MS) (FIGS. 5A–5G). […] Neither of the recombinant proteins expressed from TAX1 (SEQ ID NO: 28) or TAX2 (SEQ ID NO: 26) was capable of acetylating the advanced paclitaxel precursor 10-deacetyl baccatin III to baccatin III. […]

[1] = molecular target: T2, taxane-2α-O-benzoyl transferase (TAX2) (Taxus cuspidata, UniProt Q9FPW3); assay: recombinant TAX2 benzoyl transferase screening assay (radio-HPLC); assay type: biochemical; settings: UV and radioactivity profiles
T2 construct: Full-length insert fragments of the relevant plasmids are excised and subcloned in-frame into the expression vector pCWori+; made in house; host or cells: E. coli JM109 (pCWori+)
T2 sequence (Q9FPW3 1-440): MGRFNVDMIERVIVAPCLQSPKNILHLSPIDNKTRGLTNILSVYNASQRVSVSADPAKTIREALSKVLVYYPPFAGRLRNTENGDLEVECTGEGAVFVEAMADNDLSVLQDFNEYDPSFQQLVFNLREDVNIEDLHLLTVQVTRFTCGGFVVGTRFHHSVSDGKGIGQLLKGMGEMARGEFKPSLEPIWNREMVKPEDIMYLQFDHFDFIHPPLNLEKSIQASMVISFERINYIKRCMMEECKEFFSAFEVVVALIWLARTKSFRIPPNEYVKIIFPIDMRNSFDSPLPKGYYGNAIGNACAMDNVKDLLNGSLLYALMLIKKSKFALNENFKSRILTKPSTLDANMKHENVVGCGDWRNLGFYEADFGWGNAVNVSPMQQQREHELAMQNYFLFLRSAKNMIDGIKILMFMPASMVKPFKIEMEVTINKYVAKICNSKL
Protocol: TAX2, TAX5, TAX7, TAX9, TAX10, TAX 12, and TAX13 ([…]) were expressed in bacteria using the following protocol. For a typical preparation of the recombinant enzyme, each of the E. coli cultures transformed with a pCWori+ vector harboring a putative transacylase gene was grown overnight at 37° C. in 5 mL Luria-Bertani medium supplemented with 50 μg ampicillin/mL. 1 mL of these cultures was individually added to separate aliquots of 100 mL Terrific Broth culture medium (6 g bacto-tryptone (Difco Laboratories, Spark, Md.), 12 g yeast extract (EM Science, Cherryhill, N.J.), and 2 mL glycerol in 500 mL water) and grown at 37° C. After 3 hours, the medium was supplemented with 1 mM isopropyl-β-D-thiogalactopyranoside for induction and 50 μg ampicillin/mL, and the cultures were grown at 25° C. […]
A 1-mL aliquot of each soluble enzyme preparation was incubated with 2-debenzoyl-7,13-diacetylbaccatin III (500 μM) and [7-^14C]benzoyl coenzyme A (500 μM, 9.3 μCi) for 1.5 hours at 31° C. […] The resulting crude products of the assay were dissolved in acetonitrile (50 μL) and analyzed by radio-HPLC using a Perkin Elmer HPLC ISS 200 coupled to a PACKARD RADIOMATIC™ radioactivity detector series A100 (Canberra, Ind., Meriden, Conn.) (see FIGS. 12A and 12B for a representative chromatogram). […]

B1: TAX2: full-length clone, SEQ ID NO: 25/26; taxane-2α-O-benzoyl transferase (protein, listed as Taxus cuspidata)
chain: MGRFNVDMIERVIVAPCLQSPKNILHLSPIDNKTRGLTNILSVYNASQRVSVSADPAKTIREALSKVLVYYPPFAGRLRNTENGDLEVECTGEGAVFVEAMADNDLSVLQDFNEYDPSFQQLVFNLREDVNIEDLHLLTVQVTRFTCGGFVVGTRFHHSVSDGKGIGQLLKGMGEMARGEFKPSLEPIWNREMVKPEDIMYLQFDHFDFIHPPLNLEKSIQASMVISFERINYIKRCMMEECKEFFSAFEVVVALIWLARTKSFRIPPNEYVKIIFPIDMRNSFDSPLPKGYYGNAIGNACAMDNVKDLLNGSLLYALMLIKKSKFALNENFKSRILTKPSTLDANMKHENVVGCGDWRNLGFYEADFGWGNAVNVSPMQQQREHELAMQNYFLFLRSAKNMIDGIKILMFMPASMVKPFKIEMEVTINKYVAKICNSKL
- taxadienol acetyl transacylase activity (TAX2 gene product): did not express taxadienol acetyl transacylase activity; also recorded: inactive
- product from 2-debenzoyl-7,13-diacetylbaccatin III and [7-14C]benzoyl CoA [1]: coincide exactly with the retention time of authentic 7,13-diacetylbaccatin III
